Source: patent US20130295118A1 (CELLERANT THERAPEUTICS, published 2013)

T1: human C type Lectin Like molecule 1 (CLL-1) on cells (human, UniProt Q5QGZ9 1-265)
T1 sequence: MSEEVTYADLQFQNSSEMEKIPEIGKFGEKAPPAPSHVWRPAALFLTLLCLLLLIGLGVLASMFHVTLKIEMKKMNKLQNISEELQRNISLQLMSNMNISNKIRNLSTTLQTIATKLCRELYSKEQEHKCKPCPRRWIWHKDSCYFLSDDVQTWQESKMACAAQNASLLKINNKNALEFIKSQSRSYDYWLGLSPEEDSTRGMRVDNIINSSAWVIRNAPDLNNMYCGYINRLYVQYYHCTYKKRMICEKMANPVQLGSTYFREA

T2: biotinylated CLL-1 (hCLL-1) (human, UniProt Q5QGZ9 65-265, limits assumed, biotinylated (site not stated))
T2 sequence: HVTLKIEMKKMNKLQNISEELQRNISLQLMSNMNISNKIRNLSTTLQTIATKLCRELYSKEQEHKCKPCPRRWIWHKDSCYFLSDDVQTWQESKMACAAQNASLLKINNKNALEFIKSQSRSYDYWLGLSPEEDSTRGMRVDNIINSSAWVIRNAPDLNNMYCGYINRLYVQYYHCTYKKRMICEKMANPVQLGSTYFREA

T3: C lectin domain of CLL-1 expressed in 293T cells (human, UniProt Q5QGZ9 140-249)
T3 sequence: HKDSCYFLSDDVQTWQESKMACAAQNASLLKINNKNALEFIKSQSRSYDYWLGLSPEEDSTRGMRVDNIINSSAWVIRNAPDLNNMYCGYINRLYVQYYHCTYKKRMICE


Tests used:
[1] = biological target: T1, human C type Lectin Like molecule 1 …; assay: cell-based or functional assay
[2] = biological target: T1, human C type Lectin Like molecule 1 …; assay: FACS, HL60 AML cell line
[3] = biological target: T1, human C type Lectin Like molecule 1 …; assay: FACS, OCI AML-5 AML cell line
[4] = biological target: T1, human C type Lectin Like molecule 1 …; assay: FACS, primary AML patient cells, Group 1
[5] = biological target: T2, biotinylated CLL-1 (hCLL-1); assay: biotinylated CLL-1 on streptavidin sensor tips; antibody at 10, 30, 90 ug/ml; global 1:1 fit
[6] = biological target: T1, human C type Lectin Like molecule 1 …; assay: cell-based or functional assay; remark: listed apart in the source
[7] = biological target: T1, human C type Lectin Like molecule 1 …; assay: FACS, recombinant 293 cells expressing human CLL-1
[8] = biological target: T1, human C type Lectin Like molecule 1 …; assay: cell-based or functional assay; remark: listed apart in the source
[9] = biological target: T3, C lectin domain of CLL-1 expressed in …; assay: binding to 293T cells expressing the C lectin domain of CLL-1

Binder | ADC EC50 (pM), saporin-conjugated antibody, cell viability [1] | % of live cells with antibody binding [2] | % of live cells with antibody binding [3] | positive patient samples / total tested [4] | Kd [5] | ADCC EC50 (Promega ADCC Reporter Assay) [6] | % of live cells with antibody binding [7] | CDC (% killing), 10 ug/mL antibody, primary AML cells [8] | binding result [9]
CLL-1 antibody clone G4 (antibody, IgG1, V domains shown, also called 31.G4; 31G4) VH: EVQLQQSGPELVKPGASMKISCKASGYSFTGYTMNWVKQSHEKNLEWIGPINPYNDGTIYNPNFKGKATLTVDKASSTAYMELLSLTSDDPAVYYCARTDDYDDYTMDYWGQGTSVTVSS VL: EIQMTQTPSSLSASLGDRVTISCRASHDISNYLNWYQQKPDGTLKLLIYYTSRLHSGVPSRFSGSGSGTDYSLTISNLEQEDIATYFCQQGKTLLWTFGGGTKLEIK | 44.4 pM | 83.2% | 83.2% | 2 of 2 patient samples | 0.053 nM | – | – | – | –
human chimeric CLL-1 antibody ChiG4 (antibody, V domains shown) VH: EVQLQQSGPELVKPGASMKISCKASGYSFTGYTMNWVKQSHEKNLEWIGPINPYNDGTIYNPNFKGKATLTVDKASSTAYMELLSLTSDDPAVYYCARTDDYDDYTMDYWGQGTSVTVSS VL: EIQMTQTPSSLSASLGDRVTISCRASHDISNYLNWYQQKPDGTLKLLIYYTSRLHSGVPSRFSGSGSGTDYSLTISNLEQEDIATYFCQQGKTLLWTFGGGTKLEIK | – | – | – | – | – | 0.105 µg/mL | – | – | –
CLL-1 antibody clone G12 (antibody, IgG1, V domains shown) VH: QVQLQQPGAELVKPGASMKMSCKASGYTFPSSNIHWLKQTPGQGLEWIGVIYPGNGDTSYNQKFKDKATLTTDKSSSTAYMQLSSLTSEDSAIYFCARVYNWHFDVWGAGTTVTVSS VL: NIVLTQSPASLAVSLGQRATISCRASESVDGYGDIFMLWYQQKPGQPPKLLIYFASNLESGVPARFSGSGSRTDFTLTIDPVEADDAATYYCQQNNEDPYTFGGGTKLEIKR | 19.4 pM | 88.3% | – | 2 of 2 patient samples | 0.07 nM | – | 99.9% | – | –
CLL-1 antibody clone M5 (antibody, IgG2a, V domains shown) VH: EVQLQQSGAELVRPGASVKLSCTASGFNIKDDYIHWVKQRPEQGLEWIGWIDPEKGDTAYASKFQDKATITSDTSSNTAYLQLSSLTSEDTAVYYCTLTGRFDYWGQGTTLTVSS VL: DIVMSQSPSSLAVSVGEKVTMSCKSSQSLLYSSNQKNNLAWYQQKPGQSPKLLIYWASTRESGVPDRFTGSGSGTDFTLTISSVQAEDLAVYYCQQYYSYRTFGGGTKLEIK | 150 pM | 1.7% | 2.3% | – | 0.553 nM | – | 1.1% | 17.9% | –
CLL-1 antibody clone M22 (antibody, IgG2a, V domains shown) VH: QVQLQQPGAELVKPGASVKLSCKASGYTFTRYWMHWVKQRPGQGLEWIGNIDPSDTETHYNQQFKDKATLTVDKSSSTAYMQLSSLTSEDSAVYYCAIYYGNPSYYAMDYWGQGTSVTVSS VL: DIVMTQSPSSLTVTAGEKVTMSCKSSQNLLNSGNQKKYLNWYQQKPGQPPKLLIYWASTRESGVPDRFTGSGSGTDFTLTISSVQAEDLAVYFCQNDYSYPFTFGAGTKLELK | – | 37.2% | 57.6% | – | 0.388 nM | – | 97% | 14.5% | –
CLL-1 antibody clone M31 (antibody, IgG2a, V domains shown) VH: EVQLQQSGPELVKPGASVKMSCKASGYTFTSYVMHWVKQKPGQGLEWIGYINPYNDGTKYNEKFKGKATLTSDTSSSTAYMELNSLTSEDSAVYFCARPIYFDNDYFDYWGQGTTLKVSS VL: TIVLTQSPASLAVSLGQRATISCRASESVDSYGNSFMHWYQQKPGQPPKLLIYLASNLESGVPARFSGSGSRTDFTLTIDPVEADDAATYYCQQNNYDPWTFGGGTKLEIK | 34.3 pM | 91% | 89.7% | – | 0.611 nM | – | 76% | 12.1% | no binding
human chimeric CLL-1 antibody ChiM31 (antibody, V domains shown) VH: EVQLQQSGPELVKPGASVKMSCKASGYTFTSYVMHWVKQKPGQGLEWIGYINPYNDGTKYNEKFKGKATLTSDTSSSTAYMELNSLTSEDSAVYFCARPIYFDNDYFDYWGQGTTLKVSS VL: TIVLTQSPASLAVSLGQRATISCRASESVDSYGNSFMHWYQQKPGQPPKLLIYLASNLESGVPARFSGSGSRTDFTLTIDPVEADDAATYYCQQNNYDPWTFGGGTKLEIK | – | – | – | – | – | 0.143 µg/mL | – | – | –
CLL-1 antibody clone M29 (antibody, IgG1, V domains shown) VH: EVQLQQSGPELVKPGASVKMSCKASGYIFTSYVMYWVKQKPGQGLEWIGYINPYNDGTKYNEKFKGKATLTSDKSSSTAYMELSSLTSEDSAVYYCARYYDYDYYFDYWGQGTTLTVSS VL: DIQMTQSPSSLSASLGGKVTITCKASQDINKYIAWYQHKPGKGPRLLIHYTSTLQPGIPSRFSGSGSGRDYSFSISNLEPEDIATYYCLQYDYLWTFGGGTKLEIK | 91.4 pM | 84.6% | 87.6% | – | 1.48 nM | – | 99.9% | – | –
CLL-1 antibody clone M26 (antibody, V domains shown, Conjugated to saporin in the ADC assays) VH: EVQLQQSGPELVKPGASVKMSCKASGYTFTSYFIHWVKQKPGQGLEWIGFINPYNDGSKYNEKFKGKATLTSDKSSSTAYMELSSLTSEDSAVYYCTRDDGYYGYAMDYWGQGTSVTVSS VL: DIQMTQSPSSLSASLGERVSLTCRATQELSGYLSWLQQKPDGTIKRLIYAASTLDSGVPKRFSGNRSGSDYSLTISSLESEDFADYYCLQYAIYPYTFGGGTKLEIKR | 90.2 pM | – | – | – | 0.214 nM | – | – | – | no binding
human chimeric CLL-1 antibody ChiM26 (antibody, V domains shown) VH: EVQLQQSGPELVKPGASVKMSCKASGYTFTSYFIHWVKQKPGQGLEWIGFINPYNDGSKYNEKFKGKATLTSDKSSSTAYMELSSLTSEDSAVYYCTRDDGYYGYAMDYWGQGTSVTVSS VL: DIQMTQSPSSLSASLGERVSLTCRATQELSGYLSWLQQKPDGTIKRLIYAASTLDSGVPKRFSGNRSGSDYSLTISSLESEDFADYYCLQYAIYPYTFGGGTKLEIKR | – | – | – | – | – | 0.079 µg/mL | – | – | –
CLL-1 antibody clone M2 (antibody, IgG1, V domains shown) VH: EVQLRQSGPELVKPGASVKMSCKASGYTFTSYFMHWVKQKPGQGLEWIGFINPYNDGTKYNEKFKGKATLTSDKSSSTAYMELNSLTSEDSAVYYCTRDDGYYDYAMDYWGQGTSVTVSS VL: DIQMTQSPSSLSASLGERVSLTCRASQEISVYLSWLQQKPDGTIKRLIYAASTLDSGVPERFSGSRSGSDYSLTISSLESEDFADYYCLQYASYPYTFGGGTKLEIKR | 20.9 pM | 90.3% | 96.3% | 2 of 2 patient samples | 0.205 nM | – | 99.9% | – | –
